Tests used:
[1] = substrate: CCCC[C@@H](C(=O)Nc1ccc2c(C)c(CC(=O)O)c(=O)oc2c1)n1cc([C@@](C)(NCc2ccc3ncsc3c2)C(C)C)nn1; experiment: (§1) Binding affinity to Trypanosoma cruzi Cruzain assessed as Kcat/Km
[2] = substrate: CCCC[C@@H](C(=O)Nc1ccc2c(C)c(CC(=O)O)c(=O)oc2c1)n1cc([C@@](C)(NCc2ccc(OC)cc2)C(C)C)nn1; experiment: as §1
[3] = substrate: CCCC[C@@H](C(=O)Nc1ccc2c(C)c(CC(=O)O)c(=O)oc2c1)n1cc([C@@](C)(NCc2ccc3ncccc3c2)C(C)C)nn1; experiment: as §1
[4] = substrate: CCCC[C@@H](C(=O)Nc1ccc2c(C)c(CC(=O)O)c(=O)oc2c1)n1cc([C@@](C)(NCc2ccc(F)cc2)C(C)C)nn1; experiment: as §1
[5] = substrate: CCCC[C@@H](C(=O)Nc1ccc2c(C)c(CC(=O)O)c(=O)oc2c1)n1cc([C@@](C)(NCc2ccccc2)C(C)C)nn1; experiment: as §1

B1: Cruzipain (Trypanosoma cruzi), P25779 (protein)
chain: MSGWARALLLAAVLVVMACLVPAATASLHAEETLTSQFAEFKQKHGRVYESAAEEAFRLSVFRENLFLARLHAAANPHATFGVTPFSDLTREEFRSRYHNGAAHFAAAQERARVPVKVEVVGAPAAVDWRARGAVTAVKDQGQCGSCWAFSAIGNVECQWFLAGHPLTNLSEQMLVSCDKTDSGCSGGLMNNAFEWIVQENNGAVYTEDSYPYASGEGISPPCTTSGHTVGATITGHVELPQDEAQIAAWLAVNGPVAVAVDASSWMTYTGGVMTSCVSEQLDHGVLLVGYNDSAAVPYWIIKNSWTTQWGEEGYIRIAKGSNQCLVKEEASSAVVGGPGPTPEPTTTTTTSAPGPSPSYFVQMSCTDAACIVGCENVTLPTGQCLLTTSGVSAIVTCGAETLTEEVFLTSTHCSGPSVRSSVPLNKCNRLLRGSVEFFCGSSSSGRLADVDRQRRHQPYHSRHRRL
[1]
  kcat/Km: 19
[2]
  kcat/Km: 6.5
[3]
  kcat/Km: 19
[4]
  kcat/Km: 4
[5]
  kcat/Km: 3.5

Reference: ChEMBL document CHEMBL5244221, “Synthesis and structure-activity relationship studies of cruzain and rhodesain inhibitors” (Eur J Med Chem, 2018)
